Experimental data published in article PMC3894171, “Defining NELF-E RNA Binding in HIV-1 and Promoter-Proximal Pause Regions”.

Key:
Details in all cases: protein: recombinant, tags: N-terminal His6 (pHIS-parallel1), label: 3' fluorescein (5-thiosemicarbazide)
dNELF-E [1] = target: T1, dNELF-E (Drosophila, UniProt P92204 1-280); test: F-EMSA; 10 mM HEPES-NaOH pH 7.5, 100 mM NaCl, 25 mM KCl, 1 mM MgCl2, 0.02% Tween-20, 0.01% IGEPAL CA-630, 10 µg/ml yeast tRNA; 2 nM RNA, 0-2000 nM protein, 1-2 h, binding temperature not stated; gel 5% acrylamide 0.5X TBE at 4 °C
T1 sequence: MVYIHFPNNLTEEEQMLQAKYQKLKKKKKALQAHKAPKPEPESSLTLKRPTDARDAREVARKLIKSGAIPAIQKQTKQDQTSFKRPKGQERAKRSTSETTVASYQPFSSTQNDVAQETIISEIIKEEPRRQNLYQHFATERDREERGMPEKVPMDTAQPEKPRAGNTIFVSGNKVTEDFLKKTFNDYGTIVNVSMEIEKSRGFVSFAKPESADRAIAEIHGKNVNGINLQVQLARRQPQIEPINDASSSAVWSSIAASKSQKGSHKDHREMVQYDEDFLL

dNELF-E [2] = target: T1, dNELF-E; test: fluorescence polarization; 10 mM HEPES-NaOH pH 7.5, 100 mM NaCl, 25 mM KCl, 1 mM MgCl2, 0.02% Tween-20, 0.01% IGEPAL CA-630, 10 µg/ml yeast tRNA; 2 nM RNA, 0-2000 nM protein, 1-2 h, binding temperature not stated; gel 5% acrylamide 0.5X TBE at 4 °C
hNELF-E [3] = target: T2, hNELF-E (human, UniProt P18615 1-380); test: F-EMSA; 10 mM HEPES-NaOH pH 7.5, 100 mM NaCl, 25 mM KCl, 1 mM MgCl2, 0.02% Tween-20, 0.01% IGEPAL CA-630, 10 µg/ml yeast tRNA; 2 nM RNA, 0-2000 nM protein, 1-2 h, binding temperature not stated; gel 5% acrylamide 0.5X TBE at 4 °C
T2 sequence (P18615 whole entry): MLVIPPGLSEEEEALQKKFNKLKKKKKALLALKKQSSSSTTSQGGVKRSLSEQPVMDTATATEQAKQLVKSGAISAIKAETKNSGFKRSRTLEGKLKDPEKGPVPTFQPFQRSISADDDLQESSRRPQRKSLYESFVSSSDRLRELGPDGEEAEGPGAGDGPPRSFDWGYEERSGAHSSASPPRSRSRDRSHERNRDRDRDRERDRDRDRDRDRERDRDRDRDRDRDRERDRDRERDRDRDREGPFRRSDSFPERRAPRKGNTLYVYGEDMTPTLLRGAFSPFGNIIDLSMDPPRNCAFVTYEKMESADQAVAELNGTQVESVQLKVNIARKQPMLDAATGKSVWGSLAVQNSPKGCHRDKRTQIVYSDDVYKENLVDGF

hNELF-E [4] = target: T2, hNELF-E; test: fluorescence polarization; 10 mM HEPES-NaOH pH 7.5, 100 mM NaCl, 25 mM KCl, 1 mM MgCl2, 0.02% Tween-20, 0.01% IGEPAL CA-630, 10 µg/ml yeast tRNA; 2 nM RNA, 0-2000 nM protein, 1-2 h, binding temperature not stated; gel 5% acrylamide 0.5X TBE at 4 °C
[5] = no predicted secondary structure

Binder: GGCCCCACUGAGGAUGCCCACGGGCGUCCUCAGUGGGGCCA (structured_RNA) [Napt1+hairpin]
- Kd (dNELF-E [1]; hairpin, NBE base-paired): 810 ± 50 nM
- Kd (dNELF-E [2]; hairpin, NBE base-paired): 470 ± 170 nM

Binder: GGCCCCACUGAGGAUGCCCACGGGCGAUUGGGGCCA (structured_RNA) [Napt1min]
- Kd (hNELF-E [3]; putative K-turn stem-loop): 420 ± 90 nM
- Kd (dNELF-E [1]; putative K-turn stem-loop): 44 ± 22 nM
- Kd (hNELF-E [4]; putative K-turn stem-loop): 140 ± 10 nM
- Kd (dNELF-E [2]; putative K-turn stem-loop): 21 ± 7 nM

Binder: GGCCCCAUCAAAGAUGCCCACGGGCGAUUGGGGCCA (structured_RNA) [Napt1NBEmut]
- Kd (dNELF-E [1]; predicted structure kept as in Napt1min): 880 ± 170 nM

B1: Napt25min (structured_RNA)
RNA: GGUCUCCAACUGAGGAUACCGCUCGAGGAAGCGAGUGGCGAUUUGGAGACCU
- Kd (dNELF-E [1]; putative K-turn stem-loop): 53 ± 9 nM
- Kd (dNELF-E [2]; putative K-turn stem-loop): 30 ± 2 nM

Binder: GGGGACUGAGGAGCAACACGGGCGAUUGGGGCCA (ssRNA) [Napt1-Δstem]
- Kd (dNELF-E [1]; [5]): 205 ± 20 nM
- Kd (dNELF-E [2]; [5]): 270 ± 130 nM

B2: HIV-1 TAR (structured_RNA)
RNA: GGUCUCUCUGGUUAGACCAGAUCUGAGCCUGGGAGCUCUCUGGCUAACUAGGGAACC
- Kd (hNELF-E [3]; hairpin with UCU bulge): 300 ± 20 nM
- Kd (dNELF-E [1]; hairpin with UCU bulge): 350 ± 35 nM
- Kd (hNELF-E [4]; hairpin with UCU bulge): 200 ± 10 nM
- Kd (dNELF-E [2]; hairpin with UCU bulge): 130 ± 10 nM

B3: HIV-1 TAR+A (structured_RNA)
RNA: GGUCUCUCUGGUUAGACCAGAUCUGAGCCUGAGGAGCUCUCUGGCUAACUAGGGAACC
- Kd (hNELF-E [3]; hairpin with UCU bulge): 250 ± 20 nM
- Kd (dNELF-E [1]; hairpin with UCU bulge): 59 ± 2 nM
- Kd (hNELF-E [4]; hairpin with UCU bulge): 250 ± 20 nM
- Kd (dNELF-E [2]; hairpin with UCU bulge): 82 ± 1 nM
